According to patent publication US20140322269A1:

Columns and labels:
eOD_L260F_N276D = experiment: method not given
eOD_L260F = experiment: method not given
eOD_N276D_N463D [1] = experiment: method not given
eOD_N276D = experiment: method not given
c1d1_N386D [2] = experiment: ITC
c1d1_b10disulf = experiment: ITC
c1d1_N386D [3] = experiment: SPR and ITC
c1d1_N386D [4] = experiment: method not restated
c1d1_N386D [5] = experiment: SPR, kinetics fitting
eOD_T257S_L260F_S375W = experiment: method not given
eOD_T257S_S375W = experiment: method not given
[6] = target: ODml(N386) (Human immunodeficiency virus type 1 group M subtype B (isolate HXB2) (HIV-1)) (UniProt P04578); experiment: SPR; IgG captured, OD variant as analyte
c2d1_b10disulf = experiment: SPR; IgG captured, OD variant as analyte
[7] = target: wild-type core GP120 (soluble, mammalian-expressed) (HIV, HxB2 strain) (UniProt P04578); experiment: SPR; IgG captured by anti-human IgG, gp120 as analyte
[8] = target: wild-type core GP120 (soluble, mammalian-expressed) (HIV, HxB2 strain) (UniProt P04578); experiment: method not restated; rounded form of 3.9 nM of Table 1
eOD_N276D_N463D [9] = experiment: method not given; protein from 293 cells
[10] = target: c1d1_N386D displayed on yeast (Saccharomyces cerevisiae); experiment: yeast surface display; Fab titration, flow cytometry
[11] = target: c1d1_v2 displayed on yeast (Saccharomyces cerevisiae); experiment: as above
[12] = target: c1d1_b10disulf displayed on yeast (Saccharomyces cerevisiae); experiment: as above
c1d1_N386D [13] = experiment: SPR

In the case of germline VRC01 IgG (antibody), the Kd (eOD_L260F_N276D) is reported as 149000 nM, the Kd (eOD_L260F) is reported as over 500000 nM and the Kd (eOD_N276D_N463D [1]) is reported as 380000 nM. It also gave a Kd (eOD_N276D) of 640000 nM.

VRC01 IgG (mature VRC01) (antibody) was tested, and the Kd (c1d1_N386D [2]) was 200 nM, the Kd (c1d1_b10disulf) was 100 nM and the fold improvement of KD over c1d1 N386D (c1d1_b10disulf) was 2 fold. The fold worse KD than core gp120 (c1d1_N386D [3]) was 35 to 50 fold, the Kd (c1d1_N386D [4]) was 80 nM and the fold weaker affinity than core gp120 (c1d1_N386D [4]) was over 10 fold. For the same substance, the Kd (c1d1_N386D [5]) was 139 nM, the Kd (eOD_L260F_N276D) was 11.9 nM and the Kd (eOD_L260F) was 14.3 nM. The Kd (eOD_N276D) was 27.8 nM, the Kd (eOD_T257S_L260F_S375W) was 8.6 nM and the Kd (eOD_T257S_S375W) was 90 nM. It also gave a Kd [6] of 298 nM, a Kd (c2d1_b10disulf) of 289 nM and a Kd [7] of 3.9 nM. For the same substance, the Kd [8] was 4 nM and the Kd (eOD_N276D_N463D [9]) was 4 nM.

With b12 Fab the Kd [10] was 21 nM and the Kd [11] was 11 nM.

For VRC01 Fab, the Kd [10] was over 50 nM, the Kd [12] was over 50 nM and the Kd [11] was over 50 nM.

Substance b12 IgG (antibody) has a fold improvement of KD over OD (386) (c1d1_N386D [13]) of 28 fold.
